{"source": "paper PMC2815668", "about": "“Pseudo-merohedral twinning and noncrystallographic symmetry in orthorhombic crystals of SIVmac239 Nef core domain bound to different-length TCRζ fragments” (Acta Crystallographica Section D: Biological Crystallography, 2010)", "binders": {"B1": {"name": "TCRζDP1 (Leu51–Asp93), N-terminal acid-cleavage fragment of the TCRζ cytoplasmic domain (domain or fragment)", "chain": "LRVKFSRSADAPAYQQGQNQLYNELNLGRREEYDVLDKRRGRD", "notes": "also called longer TCRζ polypeptide; source: acid cleavage of purified TCRζcyt (30% acetonitrile, 0.5% TFA, 48 h, 323 K), isolated by reverse-phase chromatography"}}, "molecular_target": "T1, SIVmac239 Nef core domain, GS-Nef (Asp95–Ser235) (simian immunodeficiency virus, isolate …, UniProt P31818 95-235)", "T1 construct": "source: E. coli BL21 (DE3), purified (Ni-NTA under 8 M urea, dialysis, thrombin cleavage, anion exchange, SEC)", "T1 sequence": "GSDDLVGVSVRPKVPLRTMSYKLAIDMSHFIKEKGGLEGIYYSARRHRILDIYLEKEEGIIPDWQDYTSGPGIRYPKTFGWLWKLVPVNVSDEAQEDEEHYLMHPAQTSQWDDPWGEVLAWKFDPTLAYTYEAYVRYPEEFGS", "experiment": "not stated; unpublished results; stoichiometry of the complex", "conditions": "both partners purified"}
{"binder": "B1", "values": [{"measurement": "stoichiometry N", "value": 1}]}
